These results are taken from the DeepSol protein solubility set.

This series in a line: soluble on expression in E. coli; label from the status in PepcDB or PDB records.
Take “MEGLARVFLIGGASKAVRYDEQTTIERVIHVVARGIGISQVAVAHFALRLVTGPSPQTAGSGDSLWLHPMLRITQLPHIYARHLPIGVCDEIKLEMRMRFMPQSVYELQATDSSAFVYLHEQVVDEFFSHVAWRSSVEVALEVAALKVCRDFAEHQHNKGADHHLEDLDIEACIQSLIPNVLHNPGFKHSHLKKTFTAYIKKFSATSPNESIIRSLALLLEVVKFDVELFKASLGAGWTKPVELVVGPHTGLSYRLNERCDSSRLLELRTIAEITIRKMENGSEKTLMQLNLSGAAKPVLITLSTEELSQSLAHLLDGYQMLYNQRDSVFKLKGIERCETLTMHEATIRPKTPNNIDSNIRLRRELITLKELIGGGQFGNVYKAVYHDLEKDERIAVAVKVCKTDAEPADTQLILQESSLMRNFRHSNIIQLIGVCVDQPMWLVLELAPKGELREYLQQEKDWLPLRILTLFCSQICDSLVYLHSTRFVHRDIAARNILVCSPQCVKLADFGLSRALDYDAVYTASRGKLPIKWLAPESVNYRQFSMASDVWMFGVCMWEIFSLGVKPWAGVTNSDVIMHIEQGSRPPCPEKCPTALYNFIRSKMWAIEPHKRPTVDQIYAIIEDVRQQIIQNIPPEQIIVGKPMTAAGVIVAEMSSLPGLTLYRTMEDQKRQAEEDAKWLEQEDDEDEDDQDIDQIPSTSHSSVENIRTSNGYLHHTPTSTRSLRFEDKTSRGLRRSVDGVCDAVTKLQNSFNNLTHNDDFLHSVKEVTSQLREMLIVASGMRDRVTTTTQRTDVDMTKTLIANDMKQMSRVMGKLQVNGHQATYNTLRRDVVRICGELAVNCTTLQLQLTQPPLENEFSSLLSNC”: the “soluble on expression in E. coli” value was “not soluble”.

Regarding “MAHHHHHHMVPVKVKWGRETFELTVDLRSTVKCFKEQLQQLTSVPVERQKIMGVKASQCNDNEVTLEAAGVAAGKTLMLIGTAAEVVRATPIVATGNKDSAVQAPASHPAEKQAVGLQNIANTCYMNAAVQMLRLVPEVRDVLNFNANDPIVSELLKLYNTMDTKRDPVVPASLWSILLAHFPTFAEVNEKGHPMQHDSQEALNALLQRINSCLPESHKRLFTGNLSQKMVCKDDPDDQPVLHDVPFLMLSCNIDAEIETLEAGLEAAFNETVKLHSEKLAREALHTRTSRIAAMPEYLFIHMVRFSWRSDIQSKAKILKPVTFPMTLDLHALCAEEYKPELEVERKRVLKRRDIEMERRRAAKNKTKLDDDEAAPAEDASNTAEPINTTVGNHSGYYELCGVISHKGRSADSGHYVFWGKYADQWMVLDDSNTAAVSEEDVKRLRGSGEAHIAYVLMYRSRDPRTKQSVIPL”, the “soluble on expression in E. coli” value is recorded as “soluble”.

On to “MAHHHHHHMDKLISNNKLKLSVVLLGGLCSLAYYHLKNKFHLSQFCFSKKWFSEFSIMWPGQAFSLKIKKILYETKSKYQNVLVFESTTYGKVLVLDGVIQLTEKDEFAYHEMMTHVPMTVSKEPKNVLVVGGGDGGIIRELCKYKSVENIDICEIDETVIEVSKIYFKNISCGYEDKRVNVFIEDASKFLENVTNTYDVIIVDSSDPIGPAETLFNQNFYEKIYNALKPNGYCVAQCESLWIHVGTIKNMIGYAKKLFKKVEYANISIPTYPCGCIGILCCSKTDTGLTKPNKKLESKEFADLKYYNYENHSAAFKLPAFLLKEIENI”, for which the “soluble on expression in E. coli” value is “soluble”.

In the case of “MGSDKIHHHHHHMIFELPDTTTQQISKTLTRLRESGTQVTTGRVLTLIVVTDSESDVAAVTESTNEASREHPSRVIILVVGDKTAENKVDAEVRIGGDAGASEMIIMHLNGPVADKLQYVVTPLLLPDTPIVAWWPGESPKNPSQDPIGRIAQRRITDALYDRDDALEDRVENYHPGDTDMTWARLTQWRGLVASSLDHPPHSEITSVRLTGASGSTSVDLAAGWLARRLKVPVIREVTDAPTVPTDEFGTPLLAIQRLEIVRTTGSIIITIYDAHTLQVEMPESGNAPSLVAIGRRSESDCLSEELRHMDPDLGYQHALSGLSSVKLETV”, the “soluble on expression in E. coli” value was “not soluble”.

Take “MGSDKIHHHHHHMENYTHWFYLESYTFLFYSKNQYVIYNTLNSTYIDCSLYGKTINTVLSILHNTNKTYCVGIYEYQLRDSQFTEFIKKIRNTFSGDIIKNIRGIPPFISKPILRILHHPNNPKTKEYNLLGENALFHLHEVTFYLENQGFDLNPMYKDCYKQFLYPTYTEKQKLSHAKYLEIIEQLSICQIDKINIIPATIEKKELFSYLLSLSRQYSIKTQIILPYKKYNKEDLKQLLTNPQFSIMIMVHLPVDYEELNSYINLFNEYNITWSLIASNKNDVIFLSKNNLGKFTNVDYIPWYTGDNMDFFKEYIYNDFKDIIEQKNTKQHIFRKQILNDNLFGKLTIFPTGEVYSNVNFPTIGNIQDQKLSEIVYSEIENYFKPWFFTRDYVSCKNCVNKYLCPSISNYEIVANEYNMCYLNQ”: the “soluble on expression in E. coli” value is listed as “not soluble”.
